# Measurements reported in PMC12737151, “Systematic Development and Characterization of Enzyme-Free, Borax-Crosslinked Microneedles for Glucose-Responsive Insulin Delivery and In Vivo Glycemic Mitigation” (Pharmaceutics, 2025).
# What was measured:
# STZ-diabetic mice [1] = experiment: Baseline efficacy 0–12 h: plasma glucose and plasma insulin; assay type: in vivo, C57BL/6J mice; conditions: basal monitoring, mean ± SD, n = 8
# STZ-diabetic mice [2] = test system: STZ-diabetic mice; set-up: species or system C57BL/6J mice; conditions: mouse, in vivo; SD
# STZ-diabetic mice [3] = experiment: Intraperitoneal glucose-tolerance test (IPGTT); assay type: in vivo, C57BL/6J mice; conditions: 30 min after 1.5 g·kg^−1 glucose i.p., 4 h post-treatment, mean ± SD, n = 8
# [4] = set-up: species or system C57BL/6J mice; conditions: mouse, in vivo; SD
# Description: Pharmacokinetics. Serial blood samples were collected following sI-MN application or SC insulin dosing. Plasma insulin concentrations were quantified by ELISA (4-PL; appropriate plasma dilution; internal QCs and spike-recovery within 80–120%). Noncompartmental analysis (NCA) yielded Cmax, tmax, and AUC over the reported interval, and terminal half-life (t1/2). […] AUCs were calculated by the linear-up/linear-down trapezoidal rule.
# patches (related to Section 2.2.3).
# Mechanical Robustness — Single-Needle Fracture
# compression at constant speed. Fracture point was identified from force–
# displacement traces. Per-array mean ± SD and overall CV were computed.
# ICC(1,1) (related to Section 2.2.4).
# ELISA Validation — Patch Extract Matrices
# ELISA sample diluent to fall within the validated range. For in-vitro release,
# corner wells avoided to minimize edge effects. Carryover was checked by
# placing an LLOQ well immediately after the ULOQ well. Matrix effect and
# 120% recovery and CV ≤15% (≤20% at LLOQ). Content (IU per patch) was
# human insulin (≈28.8 IU·mg⁻¹). All ELISA-derived masses were converted
# accordingly before IU normalizatio. Uniformity was summarized as mean ±
# ELISA Validation — Mouse Plasma (PK)
# inverted, and kept on wet ice.
# specified visual criterion) were excluded. Samples were diluted 1:5–1:20 in kit
# Selectivity against endogenous
# mouse insulin was ensured per manufacturer documentation (cross-reactivity
# <0.1%) and confirmed by blank plasma < LLOQ. Stability was verified for
# 14 days (≥90%). PK outputs per animal included observed Cmax, Tmax, AUC₀–
# regression), and t½ = ln2/λz.
# ICP–MS Validation — Boron Leaching
# Ventures (Christiansburg, VA, USA). External calibration used 0–100 µg·L⁻¹
# standards (matrix-matched), with R² ≥ 0.99 required. A rinse of 2% HNO₃ for
# daily for five consecutive days.
# dose and prior to glycemic assessments as applicable. Fasting plasma glucose
# were excluded per pre-specified rules. All animal procedures complied with
# and conformed to ARRIVE guidelines.
# [5] = mouse, in vivo; SD
substance,measurement,setting,value
recombinant human insulin [SC insulin],Plasma glucose (PGL),"STZ-diabetic mice [1]; 0 h, dose-matched SC vs patch (nominal 0.05–0.20 IU)",344 ± 16 mg/dL
same,Plasma glucose (PGL),"STZ-diabetic mice [1]; 12 h, dose-matched",220 ± 30 mg/dL
same,IVGTT plasma insulin,STZ-diabetic mice [2],5.4 ± 0.4 ng/mL
same,IPGTT peak glycemia (maximal group mean at 30 min),STZ-diabetic mice [3],272 ± 17 mg/dL
same,AUC0–12h,[4],192 ± 11 ng·h/mL
same,Tmax,[4],1.0 ± 0.1 h
same,t½ (terminal half-life),[4],2.64 ± 0.12 h
same,AST,[5],48.2 ± 6.7 U·L⁻¹
same,Creatinine,[5],39.4 ± 2.5 µmol/L
